In patent US20020137019A1 (NEW YORK UNIVERSITY, published 2002):

B1: rat AR ligand binding domain (AR579-901) in pJG4-5 (receptor, UniProt P15207 579-901, looked up, not shown: large carriers)
chain: ASRNDCTIDKFRRKNCPSCRLRKCYEAGMTLGARKLKKLGNLKLQEEGENSSAGSPTEDPSQKMTVSHIEGYECQPIFLNVLEAIEPGVVCAGHDNNQPDSFAALLSSLNELGERQLVHVVKWAKALPGFRNLHVDDQMAVIQYSWMGLMVFAMGWRSFTNVNSRMLYFAPDLVFNEYRMHKSRMYSQCVRMRHLSQEFGWLQITPQEFLCMKALLLFSIIPVDGLKNQKFFDELRMNYIKELDRIIACKRKNPTSCSRRFYQLTKLLDSVQPIARELHQFTFDLLIKSHMVSVDFPEMMAEIISVQVPKILSGKVKPIYFHT
notes: range 579-901
B2: LexA-ART-27 1-45 (other, UniProt P0A7C2 1-202, looked up)
chain: MKALTARQQEVFDLIRDHISQTGMPPTRAEIAQRLGFRSPNAAEEHLKALARKGVIEIVSGASRGIRLLQEEEEGLPLVGRVAAGEPLLAQQHIEGHYQVDPSLFKPNADFLLRVSGMSMKDIGIMDGDLLAVHKTQDVRNGQVVVARIDDEVTVKRLKKQGNKVELLPENSEFKPIVVDLRQQSFTIEGLAVGVIRNGDWLMATPPKRRAVEATGEKVLRYETFISDVLQRDLRKVLDHRDKVYEQ
notes: also called ART-27 derivative 1-45
B3: LexA-ART-27 127-157 (other, UniProt P0A7C2 1-202, looked up)
chain: MKALTARQQEVFDLIRDHISQTGMPPTRAEIAQRLGFRSPNAAEEHLKALARKGVIEIVSGASRGIRLLQEEEEGLPLVGRVAAGEPLLAQQHIEGHYQVDPSLFKPNADFLLRVSGMSMKDIGIMDGDLLAVHKTQDVRNGQVVVARIDDEVTVKRLKKQGNKVELLPENSEFKPIVVDLRQQSFTIEGLAVGVIRNGDWLDSMNIKAHIHMLLEGLRELQGLQNFPEKPHH
B4: B42-AR18-156 (receptor, rat, UniProt P15207 18-156, looked up, not shown: large carriers)
chain: TYRGAFQNLFQSVREAIQNPGPRHPEAASIAPPGACLQQRQETSPRRRRRQQHPEDGSPQAHIRGTTGYLALEEEQQPSQQQSASEGHPESGCLPEPGAATAPGKGLPQQPPAPPDQDDSAAPSTLSLLGPTFPGLSSC
B5: LexA-ART-27 46-157 (other, UniProt P0A7C2 1-202, looked up)
chain: MKALTARQQEVFDLIRDHISQTGMPPTRAEIAQRLGFRSPNAAEEHLKALARKGVIEIVSGASRGIRLLQEEEEGLPLVGRVAAGEPLLAQQHIEGHYQVDPSLFKPNADFLLRVSGMSMKDIGIMDGDLLAVHKTQDVRNGQVVVARIDDEVTVKRLKKQGNKVELLPENSEFKPIVVDLRQQSFTIEGLAVGVIRNGDWLLAKYLQLRNVIERLQEAKHSELYMQVDLGCNFFVDTVVPDTSRIYVALGYGFFLELTLAEALKFIDRKSSLLTELSNSLTKDSMNIKAHIHMLLEGLRELQGLQNFPEKPHH
B6: LexA-ART-27 1-45/127-157 (other, UniProt P0A7C2 1-202, looked up)
chain: MKALTARQQEVFDLIRDHISQTGMPPTRAEIAQRLGFRSPNAAEEHLKALARKGVIEIVSGASRGIRLLQEEEEGLPLVGRVAAGEPLLAQQHIEGHYQVDPSLFKPNADFLLRVSGMSMKDIGIMDGDLLAVHKTQDVRNGQVVVARIDDEVTVKRLKKQGNKVELLPENSEFKPIVVDLRQQSFTIEGLAVGVIRNGDWLMATPPKRRAVEATGEKVLRYETFISDVLQRDLRKVLDHRDKVYEQDSMNIKAHIHMLLEGLRELQGLQNFPEKPHH
notes: The two fragments were joined through a BamHI site
B7: LexA-ART-27 68-157 (other, UniProt P0A7C2 1-202, looked up)
chain: MKALTARQQEVFDLIRDHISQTGMPPTRAEIAQRLGFRSPNAAEEHLKALARKGVIEIVSGASRGIRLLQEEEEGLPLVGRVAAGEPLLAQQHIEGHYQVDPSLFKPNADFLLRVSGMSMKDIGIMDGDLLAVHKTQDVRNGQVVVARIDDEVTVKRLKKQGNKVELLPENSEFKPIVVDLRQQSFTIEGLAVGVIRNGDWLYMQVDLGCNFFVDTVVPDTSRIYVALGYGFFLELTLAEALKFIDRKSSLLTELSNSLTKDSMNIKAHIHMLLEGLRELQGLQNFPEKPHH
B8: ART-37 (LexA DNA binding domain fusion) (other)
chain: MKALTARQQEVFDLIRDHISQTGMPPTRAEIAQRLGFRSPNAAEEHLKALARKGVIEIVSGASRGIRLLQEEEEGLPLVGRVAAGEPLLAQQHIEGHYQVDPSLFKPNADFLLRVSGMSMKDIGIMDGDLLAVHKTQDVRNGQVVVARIDDEVTVKRLKKQGNKVELLPENSEFKPIVVDLRQQSFTIEGLAVGVIRNGDWLEFGTRARFTRGKSALLERALARPRTEVSLSAFALLSPSWYSTARAVFSVAELQSRLAALGRQVGARVLDALVAREKGARRETKVLGALLFVKGAVWKALFGKEADKLEQANDDARTFYIIEREPLINTYISVPKENSTLNCASFTAGIVEAVLTHSGFPAKVTAHWHKGTTLMIKFEEAVIARDRLEGR
notes: Clone from an LNCaP prostate cancer cell cDNA library
B9: LexA-ART-27 1-67 (other, UniProt P0A7C2 1-202, looked up)
chain: MKALTARQQEVFDLIRDHISQTGMPPTRAEIAQRLGFRSPNAAEEHLKALARKGVIEIVSGASRGIRLLQEEEEGLPLVGRVAAGEPLLAQQHIEGHYQVDPSLFKPNADFLLRVSGMSMKDIGIMDGDLLAVHKTQDVRNGQVVVARIDDEVTVKRLKKQGNKVELLPENSEFKPIVVDLRQQSFTIEGLAVGVIRNGDWLMATPPKRRAVEATGEKVLRYETFISDVLQRDLRKVLDHRDKVYEQLAKYLQLRNVIERLQEAKHSEL
notes: also called ART-27 derivative 1-67
B10: B42-AR153-336 (receptor, rat, UniProt P15207 153-336, looked up, not shown: large carriers)
chain: LSSCSADIKDILSEAGTMQLLQQQQQQQQQQQQQQQQQQQQQQEVISEGSSSVRAREATGAPSSSKDSYLGGNSTISDSAKELCKAVSVSMGLGVEALEHLSPGEQLRGDCMYASLLGGPPAVRPTPCAPLAECKGLSLDEGPGKGTEETAEYSSFKGGYAKGLEGESLGCSGSSEAGSSGTLE

Key:
[1] = target: B42-AR18-500 (rat androgen receptor N-terminus, residues 18-500, fused to the B42 activation domain) (rat) (UniProt P15207); assay: cell-based or functional assay
[2] = target: B8; assay: modified yeast two-hybrid, plate beta-galactosidase assay
[3] = target: T1, ART-5 (LexA DNA binding domain fusion) (UniProt P0A7C2 1-202, limits assumed); assay: as above
T1 construct: Clone from an LNCaP prostate cancer cell cDNA library
T1 sequence: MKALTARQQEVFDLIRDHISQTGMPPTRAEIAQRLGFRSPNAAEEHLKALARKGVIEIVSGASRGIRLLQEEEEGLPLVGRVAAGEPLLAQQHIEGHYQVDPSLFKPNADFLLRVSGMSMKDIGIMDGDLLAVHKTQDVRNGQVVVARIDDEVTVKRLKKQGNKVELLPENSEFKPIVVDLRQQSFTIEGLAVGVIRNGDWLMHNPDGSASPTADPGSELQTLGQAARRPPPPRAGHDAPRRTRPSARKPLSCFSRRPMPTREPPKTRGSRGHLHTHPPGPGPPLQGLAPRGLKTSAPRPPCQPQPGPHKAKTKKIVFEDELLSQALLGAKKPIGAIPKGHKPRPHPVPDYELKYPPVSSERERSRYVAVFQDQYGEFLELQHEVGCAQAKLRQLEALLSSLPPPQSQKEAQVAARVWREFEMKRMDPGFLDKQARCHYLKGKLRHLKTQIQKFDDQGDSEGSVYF

[4] = target: T2, ART-27 (full length, 1-157; LexA DNA binding domain fusion) (human, UniProt P0A7C2 1-202; Q9UBK9 1-157); assay: as above
T2 construct: also called LexA-ART-27; pEG202:ART-27

[5] = target: T3, B42-AR18-500 (rat androgen receptor N-terminus, residues 18-500, fused to the B42 activation domain) (rat, UniProt P15207 18-500); assay: as above
T3 construct: range 18-500; Yeast two-hybrid bait, galactose-inducible; also called AR18-500-AD; pJG4-5:AR18-500
T3 sequence (looked up): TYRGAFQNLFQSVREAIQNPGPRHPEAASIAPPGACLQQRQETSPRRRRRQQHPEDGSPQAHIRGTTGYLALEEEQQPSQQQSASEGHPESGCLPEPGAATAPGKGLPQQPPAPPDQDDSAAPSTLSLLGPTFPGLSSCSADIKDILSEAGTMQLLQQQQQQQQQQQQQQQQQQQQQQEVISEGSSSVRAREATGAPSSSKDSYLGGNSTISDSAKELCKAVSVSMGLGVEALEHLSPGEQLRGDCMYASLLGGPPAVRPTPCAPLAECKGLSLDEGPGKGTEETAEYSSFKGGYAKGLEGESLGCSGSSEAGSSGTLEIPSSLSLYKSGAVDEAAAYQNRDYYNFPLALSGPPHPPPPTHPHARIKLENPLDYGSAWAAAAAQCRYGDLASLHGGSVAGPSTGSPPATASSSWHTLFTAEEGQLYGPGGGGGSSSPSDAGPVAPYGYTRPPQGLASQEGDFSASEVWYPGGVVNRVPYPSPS

[6] = target: T2, ART-27 (full length, 1-157; LexA DNA …); assay: modified yeast two-hybrid, liquid beta-galactosidase assay
[7] = target: T3, B42-AR18-500 (rat androgen receptor …); assay: modified yeast two-hybrid screen of a LexA-LNCaP cDNA library
[8] = target: T2, ART-27 (full length, 1-157; LexA DNA …); assay: modified yeast interaction-trap assay, liquid beta-galactosidase

LexA vector alone (from UniProt P0A7C2 1-202)
quantitative liquid beta-galactosidase assay (modified yeast two-hybrid) (unit of activity) [1]: 1

B1
binding result [2]: no binding
binding result [3]: no binding
binding result [4]: no binding

B2
binding result [5]: no binding

B3
binding result [5]: no binding

B4
binding result [6]: no binding

B5
binding result [5]: no binding

B6
binding result [5]: no binding

B7
binding result [5]: no binding

B8
binding result [7]: binds

B9
binding result [5]: no binding

B10
binding result [8]: binds
